Data taken from patent US12467929.

What was measured:
[1] = target: recombinant UBE3A protein (Homo sapiens (Human)) (UniProt Q05086); assay: Simoa; capture GTX; SBG 75 pm; UBE3A 20.0 ng/ml
[2] = target: recombinant UBE3A protein (Homo sapiens (Human)) (UniProt Q05086); assay: Simoa; capture GTX; SBG 150 pm; UBE3A 0.160 ng/ml
[3] = target: recombinant UBE3A protein (Homo sapiens (Human)) (UniProt Q05086); assay: Simoa; capture GTX; SBG 150 pm; UBE3A 0.00640 ng/ml
[4] = target: recombinant UBE3A protein (Homo sapiens (Human)) (UniProt Q05086); assay: Simoa; capture GTX; 3E5 0.2 ug/ml; UBE3A 0.00128 ng/ml
[5] = target: recombinant UBE3A protein (Homo sapiens (Human)) (UniProt Q05086); assay: 3-step Simoa, 120 min bead step; capture GTX; UBE3A 500 ng/ml
[6] = target: recombinant UBE3A protein (Homo sapiens (Human)) (UniProt Q05086); assay: Simoa; capture GTX + helper beads; 3E5 0.4 ug/ml; UBE3A 4.00 ng/ml
[7] = target: recombinant UBE3A protein (Homo sapiens (Human)) (UniProt Q05086); assay: Simoa; capture GTX, no helper beads; 3E5 0.2 ug/ml; UBE3A 20.0 ng/ml
[8] = target: recombinant UBE3A protein (Homo sapiens (Human)) (UniProt Q05086); assay: Simoa; capture GTX, no helper beads; 3E5 0.1 ug/ml; UBE3A 0.160 ng/ml

Chain of UniProt Q05086 (Q05086 whole entry): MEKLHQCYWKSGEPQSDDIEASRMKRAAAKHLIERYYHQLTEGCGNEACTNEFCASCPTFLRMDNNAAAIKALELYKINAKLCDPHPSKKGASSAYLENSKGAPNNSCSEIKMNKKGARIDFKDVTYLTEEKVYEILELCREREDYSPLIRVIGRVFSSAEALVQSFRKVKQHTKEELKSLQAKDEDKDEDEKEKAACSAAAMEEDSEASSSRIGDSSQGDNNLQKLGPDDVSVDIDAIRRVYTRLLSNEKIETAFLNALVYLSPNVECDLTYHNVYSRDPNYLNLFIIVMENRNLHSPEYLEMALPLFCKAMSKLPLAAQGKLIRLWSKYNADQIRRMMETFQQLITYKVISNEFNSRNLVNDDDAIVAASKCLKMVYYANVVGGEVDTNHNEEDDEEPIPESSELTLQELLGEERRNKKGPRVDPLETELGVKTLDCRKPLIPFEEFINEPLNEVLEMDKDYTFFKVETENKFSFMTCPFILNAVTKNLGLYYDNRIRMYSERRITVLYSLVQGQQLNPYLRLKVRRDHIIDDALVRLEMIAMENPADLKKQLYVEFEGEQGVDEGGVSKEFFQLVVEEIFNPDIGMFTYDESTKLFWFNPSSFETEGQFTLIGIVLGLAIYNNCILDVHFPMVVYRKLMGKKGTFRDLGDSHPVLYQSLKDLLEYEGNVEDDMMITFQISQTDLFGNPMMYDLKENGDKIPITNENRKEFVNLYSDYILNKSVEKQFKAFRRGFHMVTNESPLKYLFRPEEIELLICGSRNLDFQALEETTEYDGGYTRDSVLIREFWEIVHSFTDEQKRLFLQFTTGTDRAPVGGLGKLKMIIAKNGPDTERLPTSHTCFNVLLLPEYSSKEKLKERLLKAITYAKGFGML

AEB1 [1]: 2.44
AEB2 [1]: 2.81
AEB3 [1]: 2.75
Average AEB [1]: 2.67
Signal to Background [1]: 611
AEB1 [2]: 0.0773
AEB2 [2]: 0.0769
Average AEB [2]: 0.0771
Signal to Background [2]: 5.82
AEB1 [3]: 0.0136
AEB2 [3]: 0.0149
AEB3 [3]: 0.014
Average AEB [3]: 0.0142
Signal to Background [3]: 1.07
AEB1 [4]: 0.0457
AEB2 [4]: 0.0439
AEB3 [4]: 0.0421
Average AEB [4]: 0.0439
Signal to Background [4]: 1.12
AEB1 [5]: 16.8
AEB2 [5]: 16.8
Ave AEB [5]: 16.8
Signal to Background [5]: 9850
AEB1 [6]: 1.16
AEB2 [6]: 1.12
Average AEB [6]: 1.14
Signal to Background [6]: 58.5
AEB1 [7]: 4.96
AEB2 [7]: 5
Average AEB [7]: 4.98
Signal to Background [7]: 514
AEB1 [8]: 0.0402
AEB2 [8]: 0.0395
Average AEB [8]: 0.0399
Signal to Background [8]: 6.95
Substance: anti-UBE3A antibody 3E5 (SAB1404508-100 ug, Millipore-Sigma)
